Results reported in PMC11359169, “[…] CLOCK-ASSOCIATED1 Delays Flowering by Directly Inhibiting the Transcription of BcSOC1 in Pak-choi”.

What was measured:
BcFLC = BcFLC (Brassica campestris (syn. Brassica …, UniProt A4L9R7 1-196)); assay: EMSA; cold probe competition 10x, 100x, 250x; Chemiluminescent EMSA kit (Beyotime); buffer, salt, pH and temperature not stated; settings: protein: recombinant; tags: GST (pGEX-4T-1); chain copies: 2; label: biotin (5' and 3' ends per Methods); blunt
BcCCA1 = BcCCA1 (Brassica campestris (syn. Brassica …, UniProt F5B4H3 1-554)); assay: as above; settings: protein: recombinant; tags: His (pCold-His); label: biotin (5' and 3' ends per Methods); blunt
Chain of BcCCA1 (Brassica campestris (F5B4H3 entry or part of it): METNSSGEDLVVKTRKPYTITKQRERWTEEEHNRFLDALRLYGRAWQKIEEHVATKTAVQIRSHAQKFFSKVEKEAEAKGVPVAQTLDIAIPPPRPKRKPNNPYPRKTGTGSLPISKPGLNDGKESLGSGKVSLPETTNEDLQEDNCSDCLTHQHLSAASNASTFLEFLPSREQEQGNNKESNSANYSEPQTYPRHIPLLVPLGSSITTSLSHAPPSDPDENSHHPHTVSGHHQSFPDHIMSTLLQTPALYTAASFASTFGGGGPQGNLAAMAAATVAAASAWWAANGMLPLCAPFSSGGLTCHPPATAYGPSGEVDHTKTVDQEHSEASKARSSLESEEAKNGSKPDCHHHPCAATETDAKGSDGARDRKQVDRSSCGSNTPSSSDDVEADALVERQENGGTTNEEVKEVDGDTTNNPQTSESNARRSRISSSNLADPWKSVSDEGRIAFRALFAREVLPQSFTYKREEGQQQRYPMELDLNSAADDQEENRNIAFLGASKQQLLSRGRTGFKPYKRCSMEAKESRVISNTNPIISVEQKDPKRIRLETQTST

Chain of BcFLC (Brassica campestris (A4L9R7 entry or part of it): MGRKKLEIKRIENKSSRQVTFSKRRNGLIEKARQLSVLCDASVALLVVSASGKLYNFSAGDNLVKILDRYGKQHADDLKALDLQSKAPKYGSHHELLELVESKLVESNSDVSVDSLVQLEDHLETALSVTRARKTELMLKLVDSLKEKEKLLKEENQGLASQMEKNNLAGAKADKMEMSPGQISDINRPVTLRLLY

B1: GATA probe (BcSOC1 promoter) (dsDNA)
DNA 1: GTAAAGGATGAGGTTTCAAG
DNA 2: CTTGAAACCTCATCCTTTAC
B1: binds (BcFLC).

B2: MBS probe (BcSOC1 promoter) (dsDNA)
DNA 1: TCCCCGTCAACGTATGTTGA
DNA 2: TCAACATACGTTGACGGGGA
B2: binds (BcCCA1).
